Results taken from paper PMC12060307.

What was measured:
[1] = target: Japanese soil-borne wheat mosaic virus movement protein (MP^JSBWMV), as fusions MP^JSBWMV:RFP and MP^JSBWMV:GFP (Japanese soil-borne wheat mosaic virus); experiment: FRET or BRET; FRET-FLIM (two-photon, time-correlated single-photon counting) in agro-inoculated N. benthamiana epidermal cells, at plasmodesmata; donor MP:GFP, acceptor RFP fusion; FRET efficiency above 5% considered as interaction
[2] = system: MPJSBWMV:GFP (movement protein, GFP fusion, in leaf extract) (Japanese soil-borne wheat mosaic virus); experiment: MST; settings: MST in leaf extract: extraction in 2x MST buffer (100 mM Tris-HCl pH 7.5, 300 mM NaCl, 10 mM MgCl2, 0.1% Tween-20, 0.1 mg/mL BSA, 10 mM DTT, protease …)

| Substance | % FRET [1] [%] | fluorescence lifetime of the donor MP:GFP [1] [ns] | Kd [2] [nM] |
| --- | --- | --- | --- |
| Japanese soil-borne wheat mosaic virus movement protein (MP^JSBWMV), as fusions MP^JSBWMV:RFP and MP^JSBWMV:GFP (natural protein) | 19.1 | 2 | – |
| RNA2JSBWMV | – | – | 4.5 |
| tRNA2JSBWMV (tRNA-like structure of RNA2) | – | – | 28.3 |
| tRNA1JSBWMV (tRNA-like structure of RNA1) | – | – | 16.2 |
| RNA1JSBWMV | – | – | 15.4 |
